Target: Fc-tagged human CD47-ECD protein (CD47-Fc) (human)
Assay: ELISA on coated human CD47-Fc; row printed as Affinity (µg/mL)

Chain of Fc-tagged human CD47-ECD protein (CD47-Fc) (human) (chain, as listed by the source limits assumed): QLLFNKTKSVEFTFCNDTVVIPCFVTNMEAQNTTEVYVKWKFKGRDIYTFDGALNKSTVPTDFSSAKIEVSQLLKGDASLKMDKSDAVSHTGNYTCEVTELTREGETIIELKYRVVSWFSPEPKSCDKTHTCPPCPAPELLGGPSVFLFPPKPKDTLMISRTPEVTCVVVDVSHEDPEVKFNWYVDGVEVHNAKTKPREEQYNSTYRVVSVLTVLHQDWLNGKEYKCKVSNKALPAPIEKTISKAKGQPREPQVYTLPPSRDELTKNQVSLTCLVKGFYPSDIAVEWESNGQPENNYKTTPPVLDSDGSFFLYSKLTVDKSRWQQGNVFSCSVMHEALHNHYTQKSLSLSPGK

- EC50: 0.088 µg/mL
B1: Antibody 17 (antibody, human IgG1, kappa, V domains shown)
VH: QVQLQESGPGLVKPSETLSLTCTVSGGSLDNYYWSWIRQPPGKGLEWIGYIYYSGNTNYNPSLKSRVTISVDTSKNQFSLRLRSVTAADTAVYYCARGGRFLERYWGQGTLVTVSS
VL: DIQMTQSPSSVSASVGDRVTISCRANQAIGTWLAWYQQKPGKAPKLLIYAASTLQSGVPSRFSGSGSGTEFTLTISSLQAEDVAVYYCQQYYTTPLTFGGGTKLEIKR
